Assay results published in the supplement of paper PMC10266784.

B1: library; numbered along this chain (parent)
chain: MAAAAAAAAEQQSSNGPVKKSMREKAVERRSVNKEHNSNFKAGYIPIDEDRLHKTGLRGRKGNLAICVIILLFILAVINLIITLVIWAVIRIGPNGCDSMEFHESGLLRFKQVSDMGVIHPLYKSTVGGRRNENLVITGNNQPIVFQQGTTKLSVENNKTSITSDIGMQFFDPRTQNILFSTDYETHEFHLPSGVKSLNVQKASTERITSNATSDLNIKVDGRAIVRGNEGVFIMGKTIEFHMGGNMELKAENSIILNGSVMVSTTRLPSSSSGDQLGSGDWVRYKLCMCADGTLFKVQVTSQNMGCQISDNPCGNTH

Variants of: B1
Assay: SGCB cell-surface expression functional score (HA stain, bin4 vs bin1, normalised to synonymous) (log10 ratio); higher = more cell-surface SGCB (functional)
Procedure: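 Deep mutational scan of full-length human SGCB (YFP-SGCB-HA, NNN codon sublibraries A-F) delivered by lentivirus at low MOI into ADG-HEK293 cells stably expressing SGCA, SGCD and SGCG. YFP-positive cells were stained for surface HA on unpermeabilized cells and FACS-sorted into bins. The functional score is log10(frequency in high bin 4 / frequency in low bin 1), normalised per chunk so that synonymous variants have mean 0 and SD 0.5. Scores are the median over codons and over duplicate biological replicates; scores below -0.5 are called non-functional. Scale: negative means deleterious.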

Row | Variant | SGCB cell-surface expression functional score (log10)
1 | A4H | 0.44
2 | A4S | 0.05
3 | A4M | 0.19
4 | A4Y | -0.14
5 | A4K | -0.03
6 | A4E | -0.43
7 | A4N | -0.48
8 | A4P | 0.44
9 | A4V | -0.06
10 | A4D | 0.21
11 | A4I | 0.3
12 | A4W | -0.07
13 | A4G | 0.26
14 | A4F | -0.21
15 | A4C | 0.4
16 | A4Q | -0.48
17 | A4L | 0.45
18 | A4T | 0.36
19 | A4R | -0.11
20 | Q11M | -0.03
21 | Q11E | 0.17
22 | Q11L | 0.04
23 | Q11C | 0.65
24 | Q11F | 0.07

Row | Variant | SGCB cell-surface expression functional score (log10)
25 | Q11I | -0.5
26 | Q11A | -0.04
27 | Q11G | 0.64
28 | Q11P | 0.41
29 | Q11S | 0.39
30 | Q11N | 0.3
31 | Q11D | 0.04
32 | Q11H | 0.19
33 | Q11K | -0.03
34 | Q11R | 0.14
35 | A5Y | 0.39
36 | A5L | 0.24
37 | A5S | 0.1
38 | A5E | -0.03
39 | A5Q | 0.33
40 | A5F | 0.61
41 | A5V | 0.01
42 | A5M | 0.25
43 | A5G | 0.2
44 | A5P | -0.19
45 | A5T | 0.22
46 | A5C | 0.11
47 | A5K | 0.07
48 | A5I | 0.29

Row | Variant | SGCB cell-surface expression functional score (log10)
49 | A5D | -0.01
50 | A5W | 0.56
51 | A5N | -0.07
52 | A5R | -0.2
53 | A5H | 0.12
54 | A9E | 0.28
55 | A9V | 0.15
56 | A9C | 0.54
57 | A9W | -0.24
58 | A9L | 0.19
59 | A9M | 0.67
60 | A9N | -0.39
61 | A9K | 0.19
62 | A9P | 0.17
63 | A9I | 0.35
64 | A9Q | 0.46
65 | A9S | 0.12
66 | A9D | 0.38
67 | A9F | 0.04
68 | A9Y | 0.45
69 | A9T | 0.39
70 | A9H | 0.18
71 | A9R | 0.3
72 | A9G | 0.37

Row | Variant | SGCB cell-surface expression functional score (log10)
73 | E10Y | 0.17
74 | E10H | 0.08
75 | E10W | -0.16
76 | E10M | -0.03
77 | E10L | 0.02
78 | E10K | 0.18
79 | E10F | -0.46
80 | E10R | 0.14
81 | E10D | 0.45
82 | E10T | 0.27
83 | E10A | 0.17
84 | E10V | -0.1
85 | E10N | 0.39
86 | E10I | 0.41
87 | E10Q | 0.15
88 | E10S | 0.03
89 | E10C | 0.47
90 | E10P | 0.05
91 | E10G | 0.28
92 | A3E | 0.2
93 | A3W | 0.1
94 | A3I | -0.02
95 | A3D | 0.14
96 | A3C | -0.24

Row | Variant | SGCB cell-surface expression functional score (log10)
97 | A3H | 0.3
98 | A3P | 0.42
99 | A3G | 0.02
100 | A3L | -0.02
101 | A3S | -0.23
102 | A3N | 0.29
103 | A3Q | 0.11
104 | A3T | 0.17
105 | A3K | 0.06
106 | A3Y | 0.27
107 | A3F | 0.22
108 | A3M | 0.11
109 | A3R | 0.15
110 | A3V | 0.12
111 | A7K | 0.48
112 | A7I | 0.29
113 | A7Q | 0.41
114 | A7G | 0.2
115 | A7R | 0.24
116 | A7D | 0.19
117 | A7N | 0.06
118 | A7S | -0.09
119 | A7H | -0.54
120 | A7F | 0.02

Row | Variant | SGCB cell-surface expression functional score (log10)
121 | A7T | 0.27
122 | A7W | 0.57
123 | A7M | 0.23
124 | A7E | -0.36
125 | A7Y | 0.05
126 | A7L | 0.13
127 | A7C | 0.18
128 | A7P | 0.29
129 | A7V | 0.16
130 | A6E | -0.14
131 | A6D | 0.24
132 | A6Y | 0.61
133 | A6W | -0.46
134 | A6P | 0.11
135 | A6Q | 0.69
136 | A6R | 0
137 | A6S | 0.25
138 | A6C | -0.11
139 | A6H | -0.23
140 | A6K | -0.2
141 | A6G | 0.15
142 | A6M | 0.13
143 | A6L | -0.21
144 | A6T | 0.07

Row | Variant | SGCB cell-surface expression functional score (log10)
145 | A6V | 0.22
146 | A6N | 0.26
147 | A6I | 0.36
148 | A6F | 0.37
149 | A8Q | -0.13
150 | A8N | 0.12
151 | A8M | -0.04
152 | A8P | 0.35
153 | A8K | 0.32
154 | A8H | 0.25
155 | A8V | 0.43
156 | A8I | 0.15
157 | A8C | 0.27
158 | A8L | -0.18
159 | A8W | 1.01
160 | A8F | -0.02
161 | A8T | 0.33
162 | A8R | 0.09
163 | A8S | 0.05
164 | A8G | 0.3
165 | A8E | 0.48
166 | A8Y | 0.51
167 | A8D | 0.14
